Values of other authors as cited in publication PMC8100127.

Columns and labels:
CA 15-3 (MUC1) = CA 15-3 (MUC1) (UniProt P15941); details: No purified-protein binding assay in this paper (Kd values cited). TAS on plasma EVs: 0.1 uM Cy5-aptamer, 1x PBS, 2 mM MgCl2, 25 C, 2 h
[1] = molecular target: T1, VEGF K321N;internal_change (UniProt P15692); details: No purified-protein binding assay in this paper (Kd values cited). TAS on plasma EVs: 0.1 uM Cy5-aptamer, 1x PBS, 2 mM MgCl2, 25 C, 2 h
T1 sequence: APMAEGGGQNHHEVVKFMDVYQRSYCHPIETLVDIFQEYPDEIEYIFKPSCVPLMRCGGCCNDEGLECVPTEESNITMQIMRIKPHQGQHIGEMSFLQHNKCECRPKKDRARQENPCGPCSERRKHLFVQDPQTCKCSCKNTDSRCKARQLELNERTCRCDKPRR

Chain of CA 15-3 (MUC1) (P15941 24-1097): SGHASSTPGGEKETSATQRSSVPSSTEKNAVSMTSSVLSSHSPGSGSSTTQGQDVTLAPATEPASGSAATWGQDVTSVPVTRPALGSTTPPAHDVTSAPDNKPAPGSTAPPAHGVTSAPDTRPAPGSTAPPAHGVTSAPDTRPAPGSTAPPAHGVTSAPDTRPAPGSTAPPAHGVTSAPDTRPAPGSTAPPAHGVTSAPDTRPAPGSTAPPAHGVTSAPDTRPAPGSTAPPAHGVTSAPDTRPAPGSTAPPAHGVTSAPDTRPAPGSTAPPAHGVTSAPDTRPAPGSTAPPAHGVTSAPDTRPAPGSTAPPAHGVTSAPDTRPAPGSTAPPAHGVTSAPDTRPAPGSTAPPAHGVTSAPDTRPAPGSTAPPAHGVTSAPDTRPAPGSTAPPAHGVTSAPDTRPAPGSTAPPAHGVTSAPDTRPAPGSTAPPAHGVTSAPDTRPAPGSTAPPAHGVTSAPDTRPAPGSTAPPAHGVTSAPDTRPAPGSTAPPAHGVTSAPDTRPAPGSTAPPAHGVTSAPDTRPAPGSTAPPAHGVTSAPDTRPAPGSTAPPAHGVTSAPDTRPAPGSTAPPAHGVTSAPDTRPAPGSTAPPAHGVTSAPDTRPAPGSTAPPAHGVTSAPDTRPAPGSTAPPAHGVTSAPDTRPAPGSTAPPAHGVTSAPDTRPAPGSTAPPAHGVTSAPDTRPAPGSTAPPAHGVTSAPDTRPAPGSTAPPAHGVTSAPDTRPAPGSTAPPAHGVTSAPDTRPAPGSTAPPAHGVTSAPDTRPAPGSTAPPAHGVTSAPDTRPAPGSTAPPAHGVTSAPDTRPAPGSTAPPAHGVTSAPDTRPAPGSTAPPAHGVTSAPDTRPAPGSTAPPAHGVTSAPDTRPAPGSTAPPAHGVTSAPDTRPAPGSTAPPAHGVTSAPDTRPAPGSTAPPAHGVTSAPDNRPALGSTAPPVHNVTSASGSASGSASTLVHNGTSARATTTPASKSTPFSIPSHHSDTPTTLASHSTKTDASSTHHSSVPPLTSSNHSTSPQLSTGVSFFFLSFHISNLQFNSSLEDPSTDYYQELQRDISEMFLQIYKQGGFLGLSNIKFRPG

Row | Sequence | Kd (CA 15-3 (MUC1)) | Kd [1]
1 | GCAGTTGATCCTTTGGATACCCTGG [CA 15-3 aptamer] | 0.000135 µM | 
2 | TTCCCGTCTTCCAGACAAGAGTGCAGGG [VEGF aptamer] |  | 0.4 µM
